Reference: patent publication US20170044257A1 (BRIGHAM AND WOMEN S HOSPITAL, published 2017)

Target: T1, human alpha-fetoprotein (hAFP) (human, UniProt P02771 19-609)
T1 construct: No signal peptide cleavage site is stated; also called human AFP
T1 sequence: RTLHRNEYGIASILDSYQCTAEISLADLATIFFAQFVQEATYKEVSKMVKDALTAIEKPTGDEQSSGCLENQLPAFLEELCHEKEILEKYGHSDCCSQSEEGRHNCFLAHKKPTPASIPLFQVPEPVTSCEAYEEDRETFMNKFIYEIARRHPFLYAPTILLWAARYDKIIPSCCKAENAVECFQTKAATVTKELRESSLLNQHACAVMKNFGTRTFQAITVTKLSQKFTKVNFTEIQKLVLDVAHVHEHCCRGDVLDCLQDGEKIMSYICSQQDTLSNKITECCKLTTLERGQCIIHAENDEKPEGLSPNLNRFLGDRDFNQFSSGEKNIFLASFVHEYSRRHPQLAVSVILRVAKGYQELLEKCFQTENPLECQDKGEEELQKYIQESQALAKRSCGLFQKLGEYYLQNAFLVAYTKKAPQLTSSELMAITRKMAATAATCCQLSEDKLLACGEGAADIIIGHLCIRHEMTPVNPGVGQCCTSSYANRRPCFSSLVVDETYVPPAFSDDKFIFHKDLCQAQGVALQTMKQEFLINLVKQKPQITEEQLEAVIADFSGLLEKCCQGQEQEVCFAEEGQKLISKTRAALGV
Test: SPR (Biacore 3000), mFcRn/mβ2m on chip, hAFP injected, neutral pH
Description: Surface plasmon resonance was conducted using a Biacore 3000 instrument (GE Healthcare) with CMS sensor chips coupled with recombinant human FcRn & hβ₂m heterodimer protein or mouse FcRn & mβ₂m (1000 RU). The coupling was performed by injecting 25 μg/mL of the protein diluted in 10 mM sodium acetate pH 5.0 using the amine coupling kit (GE Healthcare). Phosphate buffer (67 mM phosphate buffer, 0.15 M NaCl, 0.005% Tween 20) at pH 6.0 or pH 7.4 was used as running buffer. Glycine pH 2.5 was used for regeneration of the flow cells. hAFP (SinoBiological) was injected at 25° C. with a flow rate of 25 μl/min, and data were analyzed using the BIAevaluation 4.1 software where the sensorgrams were zero adjusted and reference cell values subtracted.

B1: recombinant mouse FcRn & mβ2m (receptor)
chain: SETRPPLMYHLTAVSNPSTGLPSFWATGWLGPQQYLTYNSLRQEADPCGAWMWENQVSWYWEKETTDLKSKEQLFLEALKTLEKILNGTYTLQGLLGCELASDNSSVPTAVFALNGEEFMKFNPRIGNWTGEWPETEIVANLWMKQPDAARKESEFLLNSCPERLLGHLERGRRNLEWKEPPSMRLKARPGNSGSSVLTCAAFSFYPPELKFRFLRNGLASGSGNCSTGPNGDGSFHAWSLLEVKRGDEHHYQCQVEHEGLAQPLTVDLDSSARSS
b2m: IQKTPQIQVYSRHPPENGKPNILNCYVTQFHPPHIEIQMLKNGKKIPKVEMSDMSFSKDWSFYILAHTEFTPTETDTYACRVKHASMAEPKTVYWDRDM
notes: Coupled to the Biacore chip for SPR; also called mFcRn
B1: binds.
